Assays:
DHX9 = DHX9 (UniProt Q08211); assay: HA immunoprecipitation and mass spectrometry; conditions: PC3 cells; average of three independent experiments; parent: est. 32; read off a plot
SNF2H = SNF2H (UniProt O60264); assay: HA immunoprecipitation and mass spectrometry; conditions: PC3 cells; average of three independent experiments; parent: est. 35; read off a plot
UniProt O60264, sequence (O60264 whole entry): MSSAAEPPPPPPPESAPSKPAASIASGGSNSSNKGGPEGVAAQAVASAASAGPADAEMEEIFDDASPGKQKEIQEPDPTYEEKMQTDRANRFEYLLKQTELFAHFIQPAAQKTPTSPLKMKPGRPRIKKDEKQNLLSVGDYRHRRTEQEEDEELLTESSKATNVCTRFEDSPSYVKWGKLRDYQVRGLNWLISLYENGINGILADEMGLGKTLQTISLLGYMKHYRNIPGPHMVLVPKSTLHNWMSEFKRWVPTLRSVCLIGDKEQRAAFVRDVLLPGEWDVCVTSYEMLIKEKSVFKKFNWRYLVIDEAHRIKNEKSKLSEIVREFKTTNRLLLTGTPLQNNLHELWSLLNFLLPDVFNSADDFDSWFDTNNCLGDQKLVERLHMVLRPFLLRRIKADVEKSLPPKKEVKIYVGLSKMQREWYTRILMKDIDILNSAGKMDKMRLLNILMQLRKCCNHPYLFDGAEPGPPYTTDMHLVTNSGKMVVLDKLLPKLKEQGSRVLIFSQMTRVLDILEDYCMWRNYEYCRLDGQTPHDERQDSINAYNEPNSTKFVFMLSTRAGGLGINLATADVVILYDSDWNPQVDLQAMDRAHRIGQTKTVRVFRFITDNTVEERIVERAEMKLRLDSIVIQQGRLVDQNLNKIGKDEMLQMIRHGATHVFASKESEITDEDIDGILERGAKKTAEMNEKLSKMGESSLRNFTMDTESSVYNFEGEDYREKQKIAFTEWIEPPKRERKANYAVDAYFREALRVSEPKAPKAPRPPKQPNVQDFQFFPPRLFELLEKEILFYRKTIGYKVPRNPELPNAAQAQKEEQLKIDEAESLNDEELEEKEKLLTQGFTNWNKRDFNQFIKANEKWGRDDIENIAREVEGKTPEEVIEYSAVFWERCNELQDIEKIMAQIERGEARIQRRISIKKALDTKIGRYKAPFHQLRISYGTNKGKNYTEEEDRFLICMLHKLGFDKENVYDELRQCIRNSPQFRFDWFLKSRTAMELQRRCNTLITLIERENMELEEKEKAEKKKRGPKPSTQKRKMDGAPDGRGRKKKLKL

UniProt Q08211, sequence (Q08211 whole entry): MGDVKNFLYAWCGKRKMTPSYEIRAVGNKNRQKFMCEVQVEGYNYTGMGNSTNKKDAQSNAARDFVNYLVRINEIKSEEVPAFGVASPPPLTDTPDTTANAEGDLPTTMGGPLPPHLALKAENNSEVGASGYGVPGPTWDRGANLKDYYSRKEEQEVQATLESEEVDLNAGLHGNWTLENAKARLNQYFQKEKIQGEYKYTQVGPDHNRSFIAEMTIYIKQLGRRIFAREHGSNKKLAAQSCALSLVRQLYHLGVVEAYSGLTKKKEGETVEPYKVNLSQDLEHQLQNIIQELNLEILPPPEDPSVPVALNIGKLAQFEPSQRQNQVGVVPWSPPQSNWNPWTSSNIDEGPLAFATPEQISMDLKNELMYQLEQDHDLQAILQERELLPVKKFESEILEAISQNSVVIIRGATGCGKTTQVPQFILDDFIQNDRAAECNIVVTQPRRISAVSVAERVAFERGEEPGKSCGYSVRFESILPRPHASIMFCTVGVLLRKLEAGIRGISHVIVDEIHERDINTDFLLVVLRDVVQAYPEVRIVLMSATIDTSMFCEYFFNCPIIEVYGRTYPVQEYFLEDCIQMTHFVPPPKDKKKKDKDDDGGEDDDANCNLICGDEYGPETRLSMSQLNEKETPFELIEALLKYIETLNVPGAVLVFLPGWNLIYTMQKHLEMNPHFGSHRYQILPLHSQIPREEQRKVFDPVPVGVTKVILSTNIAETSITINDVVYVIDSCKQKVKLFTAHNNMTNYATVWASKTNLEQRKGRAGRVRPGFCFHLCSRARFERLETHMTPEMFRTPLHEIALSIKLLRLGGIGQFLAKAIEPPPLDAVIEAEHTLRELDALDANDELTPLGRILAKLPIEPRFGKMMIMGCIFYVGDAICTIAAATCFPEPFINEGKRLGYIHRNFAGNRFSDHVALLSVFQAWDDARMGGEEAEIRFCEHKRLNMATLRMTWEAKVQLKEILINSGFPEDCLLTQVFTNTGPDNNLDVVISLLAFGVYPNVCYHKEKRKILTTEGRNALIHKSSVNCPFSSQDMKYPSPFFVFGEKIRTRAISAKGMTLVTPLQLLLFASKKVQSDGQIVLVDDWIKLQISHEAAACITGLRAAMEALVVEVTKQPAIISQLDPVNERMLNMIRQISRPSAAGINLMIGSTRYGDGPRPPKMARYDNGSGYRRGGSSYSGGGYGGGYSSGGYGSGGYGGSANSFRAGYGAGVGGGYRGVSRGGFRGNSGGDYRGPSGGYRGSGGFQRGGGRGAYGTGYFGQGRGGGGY

“HA-FLAG-tagged mouse WT BAZ2A (from UniProt Q91YE5) W531G; Y532A” showed a response (peptides number) (DHX9) of 36 and a response (peptides number) (SNF2H) of 32.
